These results are taken from patent publication US20180325979A1 (UNIVERSITY OF SOUTHAMPTON, published 2018).

This test deals with T1, HLA-Cw*0102 on the HLA-Cw*0102-positive cell line L721.174.
T1 construct: whole, on cells
The experiment in a line: MHC class I stabilisation on L721.174 cells, flow cytometry.

As for LNPSVAATL [peptide LNPSVAATL (SEQ ID NO: 5)], the binding result is listed as “binds”.
IVDLMCHATF (also called Dengue virus peptide) [peptide IVDLMCHATF (SEQ ID NO: 1)]: the binding result was “binds”.
